Experimental data: paper PMC8835902

Columns and labels:
[1] = biological target: LDgp5 (LoopDel);thioredoxin (trx) D5A;E7A;beta-hairpin;loop;replaced;by;SGSG (bacteriophage T7;Escherichia coli?) (UniProt P00581+P0AA25); experiment: EMSA; conditions: 20 mM Hepes pH 7.5, 1 mM EDTA, 100 mM KCl, 0.1 mM bME, 5% glycerol, 0.10 mg/mL BSA, 10 nM DNA, 25 C (30 min; 15 min + 15 min for supershift)
[2] = biological target: WTgp5-trx complex (T7 gp5 DNA polymerase D5A, E7A with thioredoxin) (bacteriophage T7 | not stated) (UniProt P00581)

| Substance | Kd [1] | also measured |
| --- | --- | --- |
| GGATTATTTACATTGGCAGATTCACC / TTATTAGTTATGATATTCATGTATAGTTATATGGTGAATCTGCCAATGTAAATAATCC / TATTCATGTATAGTTATGTAGAGACCGAGATCCGCGCTGCCAGTCGGCAGAGCC [Fork template 0gap] | 130 nM | – |
| GGATTATTTACATTGGCAGATTCACC / TTATTAGTTATGATATTCATGTATAGTTATATGGTGAATCTGCCAATGTAAATAATCC / TATTCATGTATAGTTATGTAGAGTCCGAGATCCGCGCTGCCAGTCGGCAGAGCC [Fork template 1gap] | 130 nM | – |
| GGATTATTTACATTGGCAGATTCACC / TTATTAGTTATGATATTCATGTATAGTTATATGGTGAATCTGCCAATGTAAATAATCC / TATTCATGTATAGTTATGTAGAGTTCCGAGATCCGCGCTGCCAGTCGGCAGAGCC [Fork template 2gap] | 130 nM | – |
| GGATTATTTACATTGGCAGATTCACC / TTATTAGTTATGATATTCATGTATAGTTATATGGTGAATCTGCCAATGTAAATAATCC [Linear template-58nt] | – | binding signal (fold lower affinity than WTgp5) [1]: 2 |
| T7 gp4 E343Q with truncated C-terminal tails (from UniProt P03692 1-566) (enzyme) | – | fold decrease in 2-aminopurine fluorescence of fork DNA (local base-pair unwinding), 2-AP at N+3, against the EQgp4-WTgp5 complex [2]: 2 fold |
